From article PMC10844976 (The Journal of Biological Chemistry, 2024)
Several values for one entry are separate records, joined by “and”; a condition that tells them apart may be missing. Identical values can stand only once.

Legend:
[1] = biological target: M54 protein (Streptococcus pyogenes); assay: mass photometry
[2] = biological target: M-related protein Mrp216 (mrp type 216), from GAS strain NS88.2 (Streptococcus pyogenes); assay: mass photometry
[3] = biological target: M-related protein (Mrp), mrp type 115, from GAS strain NS730 (Streptococcus pyogenes); assay: SPR
[4] = biological target: M-related protein (Mrp), mrp type 174, from GAS strain NS452 (Streptococcus pyogenes); assay: SPR
[5] = biological target: M-related protein (Mrp), mrp type 298, from GAS strain 939–03 (Streptococcus pyogenes); assay: SPR
[6] = biological target: M-related protein (Mrp), mrp type 52, from GAS strain PRS66 (Streptococcus pyogenes); assay: SPR
[7] = biological target: M-related protein (Mrp), mrp type 8, from GAS strain NS931 (Streptococcus pyogenes); assay: SPR
[8] = biological target: M-related protein Mrp216 (mrp type 216), from GAS strain NS88.2 (Streptococcus pyogenes); assay: SPR
[9] = biological target: M-related protein Mrp71 (mrp type 71), from GAS strain NS192 (Streptococcus pyogenes); assay: SPR
[10] = biological target: M-related protein Mrp105 (mrp type 105), from GAS strain NS210 (Streptococcus pyogenes); assay: SPR
[11] = biological target: M-related protein Mrp193 (mrp type 193), from GAS strain NS80 (Streptococcus pyogenes); assay: SPR
[12] = biological target: M1 protein (Streptococcus pyogenes) (UniProt Q99XV0); assay: mass photometry
[13] = biological target: the molecule itself; assay: mass photometry

Molecule	stoichiometry N [1]	stoichiometry N [2]	Kd [3] [nM]	Kd [4] [nM]	Kd [5] [nM]	Kd [6] [nM]	Kd [7] [nM]	Kd [8] [nM]	Kd [9] [nM]	Kd [10] [nM]	Kd [11] [nM]	stoichiometry N (IgG per Mrp216 dimer) [2]	stoichiometry N (IgG per M1 dimer) [12]	stoichiometry N [13]
M54 protein (natural protein)	2 and 4													
M-related protein Mrp216 (mrp type 216), from GAS strain NS88.2 (natural protein)		2												
human IgG1 (antibody)			13.4	9.71	16	3	15.3	5.4	11.1					
human IgG2 (antibody)			13.5	11	19.4	6.4	21.8	8.12	15.4	7.03	8.17			
human IgG3 (antibody)			244	152	226	145	256	302	220	208	201			
human IgG4 (antibody)			7.4	11.9	13.4	9.02	11.9	4.3	15.2	10.6	6.5			
human IgG (pooled mixture of all IgG subclasses found in serum) (antibody)			10.2	8.8	9.3				11.1		6.4	1	1	
M1 protein (natural protein) NGDGNPREVIEDLAANNPAIQNIRLRYENKDLKARLENAMEVAGRDFKRAEELEKAKQALEDQRKDLETKLKELQQDYDLAKESTSWDRQRLEKELEEKKEALELAIDQASRDYHRATALEKELEEKKKALELAIDQASQDYNRANVLEKELETITREQEINRNLLGNAKLELDQLSSEKEQLTIEKAKLEEEKQISDASRQSLRRDLDASREAKKQVEKDLANLTAELDKVKEDKQISDASRQGLRRDLDASREAKKQVEKDLANLTAELDKVKEEKQISDASRQGLRRDLDASREAKKQVEKALEEANSKLAALEKLNKELEESKKLTEKEKAELQAKLEAEAKALKEQLAKQAEELAKLRAGKASDSQTPDTKPGNKAVPGKGQAPQAGTKPNQNKAPMKETKRQLPST														2
